Test results: doi:10.1101/2024.04.20.590211 (bioRxiv, 2024)

Target: FluPolB, influenza B/Memphis/2003 polymerase heterotrimer (wild type) (influenza B virus B/Memphis/2003, UniProt Q5V8Z9;Q5V8Y6;Q5V8X3)
Assay: SEC

B1: hANP32A 144-249 (LCAR alone) (domain or fragment)
chain: YLDGYDRDDKEAPDSDAEGYVEGLDDEEEDEDEEEYDEDAQVVEDEEDEDEEEEGEEEDVSGEEEEDEEGYNDGEVDDEEDEEELGEEERGQKRKREPEDEGEDDD
binding result: binds
